The values that follow come from patent US20030068675, “Position dependent recognition of GNN nucleotide triplets by zinc fingers” (published 2003).

Changes are numbered by the printed parent chain.

What all share (assay): EMSA
Details in all cases: tags: MBP fusion
In general terms: A gel shift assay detects complexes by their altered migration in electrophoresis.

In one data set the target is ZFP SBS#534 (synthetic). The procedure, abridged:
(§1)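 Purified ZFP was titrated against labeled double-stranded target (1 nM or lower, at least 10-fold below expected Kd) carrying the natural binding site with flanks. Binding buffer was 10 mM Tris pH 7.5, 100 mM KCl, 1 mM MgCl2, 0.1 mM ZnCl2, 5 mM DTT, 10% glycerol, 0.02% BSA, with equilibration for at least 45 min. Bound and free target were separated on a 10% polyacrylamide gel.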

The target of the next data set is ZFP SBS#532 (synthetic, UniProt P08047). The procedure, abridged:
as §1

The target of the next data set is ZFP SBS#533 (synthetic). The procedure, abridged: as §1
In a further data set the target is T1, ZFP SBS#531 (synthetic, UniProt P08047).
T1 chain: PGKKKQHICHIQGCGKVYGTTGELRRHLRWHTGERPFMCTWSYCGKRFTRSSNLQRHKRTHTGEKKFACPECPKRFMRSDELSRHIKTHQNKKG
The procedure, abridged: as §1

A further data set concerns the target ZFP SBS#518 (synthetic, UniProt P08047). In outline: as §1
For the next data set, the target named is ZFP SBS#519 (synthetic, UniProt P08047). In outline: as §1
In another data set the target is ZFP SBS#588 (synthetic, UniProt P08047). In outline: as §1
The next data set addresses T2, ZFP SBS#575 (synthetic).
T2 chain: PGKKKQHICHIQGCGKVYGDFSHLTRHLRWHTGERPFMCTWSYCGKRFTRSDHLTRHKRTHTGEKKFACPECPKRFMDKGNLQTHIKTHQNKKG
The procedure, abridged: as §1

In the next data set the target is T3, ZFP SBS#540 (synthetic).
T3 chain: T2 chain with F21R, R50Q, D52G, H53S, D78R, K79S, G80D, N81H, Q83T
The procedure, abridged:
as §1

The target in a further data set is ZFP SBS#522 (synthetic, UniProt P08047). In outline:
as §1

The target in a further data set is T4, ZFP SBS#279 (synthetic).
T4 chain: T1 chain with T20Q, T21S, G22W, R25T, R50D, S51R, N53S, Q55T, L82R, S83K
The procedure, abridged:
as §1

A further data set has as its target T5, ZFP SBS#278 (synthetic).
T5 chain: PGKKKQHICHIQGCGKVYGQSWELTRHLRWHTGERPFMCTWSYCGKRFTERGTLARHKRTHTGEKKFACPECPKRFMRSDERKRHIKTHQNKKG
In outline:
as §1

For another data set, the target named is T6, ZFP SBS#281 (synthetic).
T6 chain: T5 chain with W22G, E23S, E50D, G52S, T53S, A55T
The procedure, abridged:
as §1

Another data set addresses T7, ZFP SBS#277 (synthetic).
T7 chain: T5 chain with Q20R, W22D, E50D, G52S, T53S, A55T
In outline: as §1

In another data set the target is T8, ZFP SBS#280 (synthetic).
T8 chain: T5 chain with W22G, E23S
The procedure, abridged: as §1

A further data set concerns the target T9, ZFP SBS#252 (synthetic).
T9 chain: T5 chain with Q20R, W22D, E50D, G52S, T53S, A55T, R82L, K83R
The procedure, abridged: as §1

Another data set concerns the target T10, ZFP SBS#276 (synthetic).
T10 chain: T5 chain with Q20R, W22D
In outline:
as §1

For another data set, the target named is ZFP SBS#538 (synthetic). In outline:
as §1

The target in a further data set is ZFP SBS#512 (synthetic). In outline: as §1
A further data set has as its target ZFP SBS#513 (synthetic). The procedure, abridged: as §1
The next data set has as its target T11, ZFP SBS#595 (synthetic).
T11 chain: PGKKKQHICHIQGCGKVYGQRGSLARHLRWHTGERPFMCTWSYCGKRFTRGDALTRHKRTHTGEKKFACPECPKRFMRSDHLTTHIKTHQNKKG
The procedure, abridged: as §1

The next data set addresses ZFP SBS#583 (synthetic). In outline: as §1
The target of the next data set is ZFP SBS#515 (synthetic). The procedure, abridged: as §1
In the next data set the target is ZFP SBS#587 (synthetic). The procedure, abridged:
as §1

In the next data set the target is ZFP SBS#517 (synthetic, UniProt P08047). The procedure, abridged:
as §1

The next data set concerns the target T12, ZFP SBS#579 (synthetic).
T12 chain: T5 chain with Q20R, W22D, E23N, E50N, G52D, R78T, D80G, E81H, R82L, K83T
In outline: as §1

In a further data set the target is T13, ZFP SBS#570 (synthetic).
T13 chain: T1 chain with T20D, T21S, E23H, R25T, R50Q, S51R, Q55V, E81H, S83T
The procedure, abridged: as §1

Another data set has as its target ZFP SBS#516 (synthetic, UniProt P08047). In outline:
as §1

Another data set deals with ZFP SBS#576 (synthetic). In outline:
as §1

Another data set deals with ZFP SBS#520 (synthetic). The procedure, abridged: as §1
A further data set addresses T14, ZFP SBS#574 (synthetic).
T14 chain: T2 chain with D20R, F21S, S22D
The procedure, abridged: as §1

The target in a further data set is T15, ZFP SBS#581 (synthetic).
T15 chain: T2 chain with D20Q, F21S, H53S, T55L
In outline: as §1

The next data set has as its target T16, ZFP SBS#514 (synthetic).
T16 chain: T11 chain with Q20R, R21S, G22D, S23A, A25T, G51S, T55A, H81N
The procedure, abridged: as §1

The next data set addresses ZFP SBS#577 (synthetic, UniProt P08047). In outline:
as §1

The term Kd denotes the equilibrium constant for the complex coming apart.

Chain of ZFP SBS#587 (synthetic) (chain, as listed by the source): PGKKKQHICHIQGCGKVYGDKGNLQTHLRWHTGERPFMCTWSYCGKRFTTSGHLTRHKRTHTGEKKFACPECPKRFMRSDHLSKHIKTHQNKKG
Chain of ZFP SBS#583 (synthetic) (chain, as listed by the source): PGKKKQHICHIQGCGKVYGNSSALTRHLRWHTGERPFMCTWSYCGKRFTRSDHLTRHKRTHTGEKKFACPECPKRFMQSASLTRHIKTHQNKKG
Chain of ZFP SBS#512 (synthetic) (chain, as listed by the source): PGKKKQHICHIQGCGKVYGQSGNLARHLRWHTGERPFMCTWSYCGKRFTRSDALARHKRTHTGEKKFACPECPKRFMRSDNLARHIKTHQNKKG
Chain of ZFP SBS#518 (P08047 other isoform, or with tags, fused parts or gaps): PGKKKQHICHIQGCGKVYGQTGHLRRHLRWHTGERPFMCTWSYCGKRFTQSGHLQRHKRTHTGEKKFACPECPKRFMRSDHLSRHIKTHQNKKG
Chain of ZFP SBS#576 (synthetic) (chain, as listed by the source): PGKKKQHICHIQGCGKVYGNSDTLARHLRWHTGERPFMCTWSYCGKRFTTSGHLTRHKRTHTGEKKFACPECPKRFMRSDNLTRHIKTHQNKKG
Chain of ZFP SBS#533 (synthetic) (chain, as listed by the source): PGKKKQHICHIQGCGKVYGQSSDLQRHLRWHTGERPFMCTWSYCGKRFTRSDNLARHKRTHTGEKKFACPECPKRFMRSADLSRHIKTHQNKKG
Chain of ZFP SBS#517 (P08047 other isoform, or with tags, fused parts or gaps): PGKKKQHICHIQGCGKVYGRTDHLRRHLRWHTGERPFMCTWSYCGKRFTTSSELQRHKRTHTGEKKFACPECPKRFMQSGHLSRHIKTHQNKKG
Chain of ZFP SBS#513 (synthetic) (chain, as listed by the source): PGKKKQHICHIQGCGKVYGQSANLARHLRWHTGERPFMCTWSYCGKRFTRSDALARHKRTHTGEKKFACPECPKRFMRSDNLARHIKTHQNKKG
Chain of ZFP SBS#519 (P08047 other isoform, or with tags, fused parts or gaps): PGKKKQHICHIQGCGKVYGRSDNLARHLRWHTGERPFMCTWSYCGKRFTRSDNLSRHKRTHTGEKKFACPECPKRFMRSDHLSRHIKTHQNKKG
Chain of ZFP SBS#532 (P08047 other isoform, or with tags, fused parts or gaps): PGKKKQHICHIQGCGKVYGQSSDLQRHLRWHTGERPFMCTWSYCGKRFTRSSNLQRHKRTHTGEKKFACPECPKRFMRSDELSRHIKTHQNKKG

B1: GCGGAGGCTT (dsDNA)
DNA 1: GCGGAGGCTT
DNA 2: AAGCCTCCGC
On to B1, for which the Kd with ZFP SBS#534 was found to be 10 nM; in the data set with ZFP SBS#532, 100 nM; with ZFP SBS#533, 7 nM; with ZFP SBS#531, 160 nM.

B2: GGGGGAGGAG (dsDNA)
DNA 1: GGGGGAGGAG
DNA 2: CTCCTCCCCC
As to B2, binding in the data set with ZFP SBS#518 was put at a Kd of 30 nM.

B3: GGGGAGGAGA (dsDNA)
DNA 1: GGGGAGGAGA
DNA 2: TCTCCTCCCC
In the data set with ZFP SBS#519, B3 yielded an equilibrium dissociation constant (Kd) of 0.3 nM.

B4: GGGGGGGGGG (dsDNA)
DNA 1: GGGGGGGGGG
DNA 2: CCCCCCCCCC
For B4, in the data set with ZFP SBS#588, the Kd was 30 nM.

B5: TACGTGGGCT (dsDNA)
DNA 1: TACGTGGGCT
DNA 2: AGCCCACGTA
The molecule B5 showed a Kd in the data set with ZFP SBS#575 of 472 nM.

B6: TGGGCAGGCC (dsDNA)
DNA 1: TGGGCAGGCC
DNA 2: GGCCTGCCCA
In the data set with ZFP SBS#540, B6 gave a Kd of 55 nM.

B7: GATGAGGCA (dsDNA)
DNA 1: GATGAGGCA
DNA 2: TGCCTCATC
For the molecule B7, in the data set with ZFP SBS#522, the Kd turned out to be 200 nM.

B8: GCGGCCGCG (dsDNA)
DNA 1: GCGGCCGCG
DNA 2: CGCGGCCGC
As to B8, the Kd in the data set with ZFP SBS#279 is 260 nM; with ZFP SBS#278, 190 nM; in the data set with ZFP SBS#281 it was 225 nM; with ZFP SBS#277, 107 nM; with ZFP SBS#280, 160 nM; in the data set with ZFP SBS#252, 100 nM. For the same molecule, the equilibrium dissociation constant (Kd) with ZFP SBS#276 came out at 90 nM.

B9: GCAGAGGCTT (dsDNA)
DNA 1: GCAGAGGCTT
DNA 2: AAGCCTCTGC
In the data set with ZFP SBS#538, B9 gave a Kd of 70 nM.

B10: GAGGTGGAAG (dsDNA)
DNA 1: GAGGTGGAAG
DNA 2: CTTCCACCTC
For the molecule B10, the results for the Kd with ZFP SBS#512 and with ZFP SBS#513 were 10 nM and 1.5 nM, respectively.

B11: TGGTTGGTAT (dsDNA)
DNA 1: TGGTTGGTAT
DNA 2: ATACCAACCA
Molecule B11 showed a Kd with ZFP SBS#595 of 73.3 nM.

B12: GTAGGGGTTG (dsDNA)
DNA 1: GTAGGGGTTG
DNA 2: CAACCCCTAC
For the molecule B12, in the data set with ZFP SBS#583, the Kd was found to be 46 nM.

B13: TGGGAGGAGT (dsDNA)
DNA 1: TGGGAGGAGT
DNA 2: ACTCCTCCCA
As to B13, binding in the data set with ZFP SBS#515 was characterised by a dissociation constant (Kd) of 0.5 nM.

B14: GGGGGTTACG (dsDNA)
DNA 1: GGGGGTTACG
DNA 2: CGTAACCCCC
B14 registered a dissociation constant (Kd) in the data set with ZFP SBS#587 of 500 nM.

B15: GGAGCTGGGG (dsDNA)
DNA 1: GGAGCTGGGG
DNA 2: CCCCAGCTCC
On to B15, for which the Kd in the data set with ZFP SBS#517 was 50 nM.

B16: GGGGTTGAGG (dsDNA)
DNA 1: GGGGTTGAGG
DNA 2: CCTCAACCCC
Consider B16, for which the affinity in the data set with ZFP SBS#579, expressed as Kd, was 200 nM.

B17: GGGGAAGGCT (dsDNA)
DNA 1: GGGGAAGGCT
DNA 2: AGCCTTCCCC
Molecule B17 showed a Kd with ZFP SBS#570 of 20 nM.

B18: GGAGGAGCT (dsDNA)
DNA 1: GGAGGAGCT
DNA 2: AGCTCCTCC
Regarding B18, the Kd with ZFP SBS#516 was 700 nM.

B19: GAGGGTGTTG (dsDNA)
DNA 1: GAGGGTGTTG
DNA 2: CAACACCCTC
Regarding B19, in the data set with ZFP SBS#576, the Kd is 200 nM.

B20: GGAGGAGAT (dsDNA)
DNA 1: GGAGGAGAT
DNA 2: ATCTCCTCC
B20 returned a Kd in the data set with ZFP SBS#520 of 300 nM.

B21: TACGTGGGGT (dsDNA)
DNA 1: TACGTGGGGT
DNA 2: ACCCCACGTA
B21 came in with a Kd in the data set with ZFP SBS#574 of 25 nM.

B22: TACGTGGGTT (dsDNA)
DNA 1: TACGTGGGTT
DNA 2: AACCCACGTA
On to B22, for which the equilibrium dissociation constant (Kd) with ZFP SBS#581 worked out at 382 nM.

B23: TAGGTGGTGG (dsDNA)
DNA 1: TAGGTGGTGG
DNA 2: CCACCACCTA
B23 gave a Kd in the data set with ZFP SBS#514 of 10 nM.

B24: GGAGCGGGGA (dsDNA)
DNA 1: GGAGCGGGGA
DNA 2: TCCCCGCTCC
For B24, the Kd with ZFP SBS#577 was 200 nM.
